Experimental data published in publication PMC2993962, “Identification of a Novel Binding Partner of Phospholipase Cβ1: Translin-Associated Factor X” (PLoS ONE, 2010).
Values belong to the molecule of their own block, whether it stands above or below them.

B1: Gαq (natural protein, rat, UniProt P82471 1-359, looked up)
chain: MTLESIMACCLSEEAKEARRINDEIERQLRRDKRDARRELKLLLLGTGESGKSTFIKQMRIIHGSGYSDEDKRGFTKLVYQNIFTAMQAMVRAMDTLKIPYKYEHNKAHAQLVREVDVEKVSAFENPYVDAIKSLWNDPGIQECYDRRREYQLSDSTKYYLNDLDRVADPSYLPTQQDVLRVRVPTTGIIEYPFDLQSVIFRMVDVGGQRSERRKWIHCFENVTSIMFLVALSEYDQVLVESDNENRMEESKALFRTIITYPWFQNSSVILFLNKKDLLEEKIMYSHLVDYFPEYDGPQRDAQAAREFILKMFVDLNPDSDKIIYSHFTCATDTENIRFVFAAVKDTILQLNLKEYNLV
modifications: thiol-reactive probe CPM, ~1:1 probe:protein (in the binding titrations)
notes: G protein alpha subunit q (Gαq), rat; the nucleotide state is told by the assay; The sentence of the methods leaves open whether Gαq carried a His tag; also called CPM-Gαq(GTPγS); Gαq-GTPγS; source: Sf9 cells, purified
B2: His6-PLCβ1 (phospholipase Cβ1), full length enzyme (enzyme, rat, UniProt P10687 1-1216, looked up)
chain: MAGAQPGVHALQLKPVCVSDSLKKGTKFVKWDDDSTIVTPIILRTDPQGFFFYWTDQNKETELLDLSLVKDARCGKHAKAPKDPKLRELLDVGNIGHLEQRMITVVYGPDLVNISHLNLVAFQEEVAKEWTNEVFSLATNLLAQNMSRDAFLEKAYTKLKLQVTPEGRIPLKNIYRLFSADRKRVETALEACSLPSSRNDSIPQEDFTPDVYRVFLNNLCPRPEIDNIFSEFGAKSKPYLTVDQMMDFINLKQRDPRLNEILYPPLKQEQVQVLIEKYEPNSSLAKKGQMSVDGFMRYLSGEENGVVSPEKLDLNEDMSQPLSHYFINSSHNTYLTAGQLAGNSSVEMYRQVLLSGCRCVELDCWKGRTAEEEPVITHGFTMTTEISFKEVIEAIAECAFKTSPFPILLSFENHVDSPKQQAKMAEYCRLIFGDALLMEPLEKYPLESGVPLPSPMDLMYKILVKNKKKSHKSSEGSGKKKLSEQASNTYSDSSSVFEPSSPGAGEADTESDDDDDDDDCKKSSMDEGTAGSEAMATEEMSNLVNYIQPVKFESFETSKKRNKSFEMSSFVETKGLEQLTKSPVEFVEYNKMQLSRIYPKGTRVDSSNYMPQLFWNAGCQMVALNFQTVDLAMQINMGMYEYNGKSGYRLKPEFMRRPDKHFDPFTEGIVDGIVANTLSVKIISGQFLSDKKVGTYVEVDMFGLPVDTRRKAFKTKTSQGNAVNPVWEEEPIVFKKVVLPSLACLRIAAYEEGGKFIGHRILPVQAIRPGYHYICLRNERNQPLMLPAVFVYIEVKDYVPDTYADVIEALSNPIRYVNLMEQRAKQLAALTLEDEEEVKKEADPGETSSEAPSETRTTPAENGVNHTATLAPKPPSQAPHSQPAPGSVKAPAKTEDLIQSVLTEVEAQTIEELKQQKSFVKLQKKHYKEMKDLVKRHHKKTTELIKEHTTKYNEIQNDYLRRRAALEKSAKKDSKKKSEPSSPDHGSSAIEQDLAALDAEMTQKLIDLKDKQQQQLLNLRQEQYYSEKYQKREHIKLLIQKLTDVAEECQNNQLKKLKEICEKEKKELKKKMDKKRQEKITEAKSKDKSQMEEEKTEMIRSYIQEVVQYIKRLEEAQSKRQEKLVEKHKEIRQQILDEKPKLQMELEQEYQDKFKRLPLEILEFVQEAMKGKVSEDSNHGSAPPSLASDPAKVNLKSPSSEEVQGENAGREFDTPL
modifications: thiol-reactive probe CPM, ~1:1 probe:protein, in the titrations with TRAX (CPM-PLCβ1); unlabelled when added to CPM-Gαq
notes: phospholipase Cβ1, rat, full length enzyme; also called CPM-PLCβ1; His-tagged PLCβ1; source: Sf9 cells, purified

Key:
Gαq [1] = target: Gαq (UniProt P21279); details: cited from earlier work
[2] = target: B2; test: other fluorescence titration; 2 nM CPM-Gαq activated with GTPγS on large unilamellar vesicles of POPC:POPS:POPE (1:1:1); PLCβ1 added; without and with excess TRAX (300 nM in the text, 200 nM in the legend); details: both partners purified
Gαq [3] = target: B1; test: as above; details: both partners purified
[4] = target: B2; test: other fluorescence titration; 2 nM CPM-labelled PLCβ1 (full length or ΔC) in solution, unlabelled TRAX added stepwise; increase of CPM intensity (excitation 380 nm, emission 420-560 nm) fitted to a bimolecular dissociation constant; apparent; details: both partners purified

Molecule: PLCβ1 (from UniProt Q9NQ66)
Kd (Gαq [1]): 0.67 nM

Molecule: B1
binding result [2]: binds

Molecule: B2
fold reduction of binding affinity in the presence of excess TRAX (Gαq [3]): 3 fold

Kd [4]: 8 nM
B3: His-tagged translin-associated factor X (TRAX) (natural protein, human, UniProt Q99598 1-290, looked up)
chain: MSNKEGSGGFRKRKHDNFPHNQRREGKDVNSSSPVMLAFKSFQQELDARHDKYERLVKLSRDITVESKRTIFLLHRITSAPDMEDILTESEIKLDGVRQKIFQVAQELSGEDMHQFHRAITTGLQEYVEAVSFQHFIKTRSLISMDEINKQLIFTTEDNGKENKTPSSDAQDKQFGTWRLRVTPVDYLLGVADLTGELMRMCINSVGNGDIDTPFEVSQFLRQVYDGFSFIGNTGPYEVSKKLYTLKQSLAKVENACYALKVRGSEIPKHMLADVFSVKTEMIDQEEGIS
notes: translin-associated factor X (TRAX), human cDNA from Open Biosystems cloned into pET32a; pET32a may also add thioredoxin and an S tag, depending on the cloning sites (surmise); source: Rosetta cells (pET32a), purified on a Ni-NTA column
